Paper PMC10953559
Where “and” joins values, the source holds several entries; their conditions need not be identical. Equal entries are not always repeated.

Biological target: GroEL14 as used with the substrate proteins NanA and DapA (E. coli) (UniProt P0A6F5)
Assay: native MS; CE-MS; 6 µM GroEL14 with 6 or 12 µM substrate monomers, denatured in 6.5 M GuHCl and 9 mM DTT and diluted 30-fold into GroEL14 buffer pH 7.5 (200 mM GuHCl, 0.3 mM DTT left); no ATP, no GroES; BGE 50 mM ammonium acetate pH 6.7

share of the total signal intensity, GroEL14-DapA2 complex: 80% | stoichiometry N (DapA monomers per GroEL14): 1 and 2
B1: dihydrodipicolinate synthase, denatured monomer (DapA) (enzyme)
chain: MFTGSIVAIVTPMDEKGNVCRASLKKLIDYHVASGTSAIVSVGTTGESATLNHDEHADVVMMTLDLADGRIPVIAGTGANATAEAISLTQRFNDSGIVGCLTVTPYYNRPSQEGLYQHFKAIAEHTDLPQILYNVPSRTGCDLLPETVGRLAKVKNIIGIKEATGNLTRVNQIKELVSDDFVLLSGDDASALDFMQLGGHGVISVTANVAARDMAQMCKLAAEGHFAEARVINQRLMPLHNKLFVEPNPIPVKWACKELGLVATDTLRLPMTPITDSGRETVRAALKHAGLL
